This experiment addresses T1, MOB1A wild-type (human, UniProt Q9H8S9-1 2-216).
T1 construct: also called MOB1A WT; full-length nonphosphorylated human MOB1A; source: E. coli BL21 (DE3) CodonPlus RIL, purified (glutathione-Sepharose, TEV cleavage, subtractive IMAC, SEC); not shown: His6, N-terminal, cleaved; GST, N-terminal, cleaved
T1 sequence (looked up): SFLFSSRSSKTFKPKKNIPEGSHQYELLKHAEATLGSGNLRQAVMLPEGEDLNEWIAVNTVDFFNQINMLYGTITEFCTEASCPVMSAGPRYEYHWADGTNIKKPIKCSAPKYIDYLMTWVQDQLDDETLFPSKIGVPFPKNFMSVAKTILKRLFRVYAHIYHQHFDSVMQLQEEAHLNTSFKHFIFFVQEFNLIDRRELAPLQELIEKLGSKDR
In words: crystal structure; MOB1A mixed with MST1 phosphopeptide at 1:1.5 mole ratio; hanging drops, 0.1 M MES pH 6.0, 0.2 M LiCl, 20% PEG 6000. The conditions noted are these: both partners purified.

Where no end group is shown, it is not given here.

B1: MST1 pT353 phosphopeptide (15-mer, crystallization) (peptide)
peptide: VASTMTDGANTMIEH
modifications: also: phosphothreonine at 353 (place in peptide not given here)
notes: MST1 (STK4), human, 15-mer encompassing pT353; also called MST1-pT353 peptide; source: synthetic peptide, bought: Biomatik
For B1, the binding result is “binds”.

B2: MST1 pT367 phosphopeptide (15-mer, crystallization) (peptide)
peptide: DDTLPSQLGTMVINA
modifications: also: phosphothreonine at 367 (place in peptide not given here)
notes: MST1 (STK4), human, 15-mer encompassing pT367; also called MST1-pT367 peptide; source: synthetic peptide, bought: Biomatik
On to B2, for which the binding result is “binds”.

The values above are taken from paper PMC5461540, “MOB1 Mediated Phospho-recognition in the Core Mammalian Hippo Pathway * ^([image sbox.jpg])” (Molecular & Cellular Proteomics : MCP, 2017).
